Patent publication US5624899

Target: murine Htk ligand (murine)
Assay: steady-state competition of 125I-Htk-Fc with unlabelled Htk-Fc on SV40MES 13 cells, Scatchard analysis

- Kd: 3 nM
Substance: soluble Htk receptor-Fc fusion protein
